T1: human ADAM9 (huADAM9) on cells (human, UniProt Q13443 206-819)
T1 construct: The pro-domain is said to be cleaved (Arg-205/Ala-206) in the mature protein; also called Cho-K/huADAM9; Cho-K/hu ADAM9.2
T1 sequence: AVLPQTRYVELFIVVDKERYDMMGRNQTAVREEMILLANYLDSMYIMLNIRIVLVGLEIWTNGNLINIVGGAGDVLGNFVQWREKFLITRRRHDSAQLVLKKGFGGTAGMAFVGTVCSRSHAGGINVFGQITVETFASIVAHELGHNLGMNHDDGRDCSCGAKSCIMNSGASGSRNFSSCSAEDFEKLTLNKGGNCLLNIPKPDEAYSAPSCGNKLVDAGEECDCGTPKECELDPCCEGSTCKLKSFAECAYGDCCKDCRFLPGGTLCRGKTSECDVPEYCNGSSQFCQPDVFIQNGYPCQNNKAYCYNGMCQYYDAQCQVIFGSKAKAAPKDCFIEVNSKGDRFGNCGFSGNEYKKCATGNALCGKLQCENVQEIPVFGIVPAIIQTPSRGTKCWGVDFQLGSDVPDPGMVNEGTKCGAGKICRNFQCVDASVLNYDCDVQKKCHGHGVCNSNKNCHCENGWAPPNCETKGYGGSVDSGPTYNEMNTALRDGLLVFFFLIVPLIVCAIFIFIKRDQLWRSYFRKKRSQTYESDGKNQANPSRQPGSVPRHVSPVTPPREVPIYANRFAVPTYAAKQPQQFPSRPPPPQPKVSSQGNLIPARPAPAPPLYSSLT

T2: His-tagged soluble human ADAM9 (shADAM9-His) (human, UniProt Q13443 206-697)
T2 construct: Contains an extracellular portion of human ADAM9; also called huADAM9-His; His peptide-tagged soluble huADAM9
T2 sequence: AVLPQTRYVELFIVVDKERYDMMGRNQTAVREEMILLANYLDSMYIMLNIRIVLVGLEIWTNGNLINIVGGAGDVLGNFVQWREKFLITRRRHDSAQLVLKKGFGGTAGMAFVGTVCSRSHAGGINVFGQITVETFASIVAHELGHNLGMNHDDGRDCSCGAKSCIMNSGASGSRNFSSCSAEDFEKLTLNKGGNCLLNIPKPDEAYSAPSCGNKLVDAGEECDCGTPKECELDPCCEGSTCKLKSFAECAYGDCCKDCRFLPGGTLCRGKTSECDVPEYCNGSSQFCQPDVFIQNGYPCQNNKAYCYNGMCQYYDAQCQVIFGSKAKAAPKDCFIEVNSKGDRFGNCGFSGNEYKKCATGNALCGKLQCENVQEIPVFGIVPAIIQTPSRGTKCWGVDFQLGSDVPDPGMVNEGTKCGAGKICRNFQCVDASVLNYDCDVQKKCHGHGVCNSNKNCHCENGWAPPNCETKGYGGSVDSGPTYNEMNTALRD

T3: cynomolgus monkey ADAM9 (cynoADAM9) on cells (cynomolgus monkey, UniProt Q13443 206-819 (human entry))
T3 construct: also called Cho-K/cynoADAM9 clone 2; Cho-K/cynoADAM9 clone #16
T3 chain: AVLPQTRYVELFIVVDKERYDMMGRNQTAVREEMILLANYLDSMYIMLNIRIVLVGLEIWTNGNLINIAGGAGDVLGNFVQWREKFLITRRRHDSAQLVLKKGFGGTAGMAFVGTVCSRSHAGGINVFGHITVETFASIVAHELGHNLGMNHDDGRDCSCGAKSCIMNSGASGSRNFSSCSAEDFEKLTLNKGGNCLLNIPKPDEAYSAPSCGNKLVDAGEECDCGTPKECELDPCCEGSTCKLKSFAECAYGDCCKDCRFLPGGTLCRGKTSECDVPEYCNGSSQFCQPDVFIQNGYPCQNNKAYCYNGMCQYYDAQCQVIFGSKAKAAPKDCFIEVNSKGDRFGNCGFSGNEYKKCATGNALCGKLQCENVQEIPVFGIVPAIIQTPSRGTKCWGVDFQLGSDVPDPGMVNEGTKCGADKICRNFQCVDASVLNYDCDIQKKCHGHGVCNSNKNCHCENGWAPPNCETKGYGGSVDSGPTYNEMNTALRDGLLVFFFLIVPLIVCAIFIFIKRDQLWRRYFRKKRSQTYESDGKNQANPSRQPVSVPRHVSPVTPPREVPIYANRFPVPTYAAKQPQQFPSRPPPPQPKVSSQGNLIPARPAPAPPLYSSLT


What was measured:
cyno FcRn = molecular target: T4, cyno FcRn (cynomolgus monkey, UniProt Q8SPV9 24-297; Q8SPW0 21-119, limits assumed); assay: FcRn binding, method not described
T4 construct: source and construct are not described
T4 sequence (Q8SPV9 24-297 limits assumed, chain 1 of 2): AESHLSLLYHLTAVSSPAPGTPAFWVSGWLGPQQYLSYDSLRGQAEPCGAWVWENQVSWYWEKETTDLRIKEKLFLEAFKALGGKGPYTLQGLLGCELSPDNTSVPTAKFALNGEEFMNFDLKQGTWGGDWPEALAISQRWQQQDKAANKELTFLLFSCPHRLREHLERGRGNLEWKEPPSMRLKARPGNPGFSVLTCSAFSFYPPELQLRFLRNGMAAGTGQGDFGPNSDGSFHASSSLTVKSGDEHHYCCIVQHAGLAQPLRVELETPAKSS
T4 sequence (Q8SPW0 21-119 limits assumed, chain 2 of 2): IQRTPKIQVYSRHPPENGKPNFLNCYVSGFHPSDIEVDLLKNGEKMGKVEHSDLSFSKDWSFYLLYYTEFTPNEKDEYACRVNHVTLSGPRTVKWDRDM

huFcRn [1] = molecular target: T5, huFcRn (human, UniProt P55899 24-297; P61769 21-119, limits assumed); assay: SPR at pH 6.0: 250 nM and 1000 nM huFcRn passed over captured antibody
T5 construct: source and construct are not described; also called human FcRn

huFcRn [2] = molecular target: T5, huFcRn; assay: SPR at pH 6.0: 25 nM and 100 nM antibody passed over immobilized FcRn (species of the FcRn not named in the legend); bivalent analyte
[3] = molecular target: T1, human ADAM9 (huADAM9) on cells; assay: FACS, 300-19 cells expressing human ADAM9
[4] = molecular target: T2, His-tagged soluble human ADAM9 …; assay: SPR (BIACORE), antibody captured, huADAM9-His in flow
[5] = molecular target: T2, His-tagged soluble human ADAM9 …; assay: SPR (BIACORE), antibody captured on anti-human Fc, shADAM9-His 6.25-100 nM, 1:1 Langmuir
[6] = molecular target: T3, cynomolgus monkey ADAM9 (cynoADAM9) on …; assay: FACS, 300-19 cells expressing cynomolgus ADAM9; FACS, 300-19 cells expressing cynoADAM9, dilution series, 4° C.
[7] = molecular target: T3, cynomolgus monkey ADAM9 (cynoADAM9) on …; assay: FACS, EC50 on 300-19 cynoADAM9 cells over EC50 on 300-19 huADAM9 cells; Unitless ratio of cyno EC50 to human EC50 by FACS on 300-19 cells

| binding result (cyno FcRn) | Kd (huFcRn [1]) [nM] | Kd (huFcRn [2]) [nM] | EC50 [3] [nM] | Kd [4] [nM] | koff [4] [s⁻¹] | kon [4] [M⁻¹ s⁻¹] | Kd [5] [nM] | EC50 [6] [nM] | cyno/human (ratio of EC50) [7] | Binder |
| --- | --- | --- | --- | --- | --- | --- | --- | --- | --- | --- |
| binds | 730 | 7.2 |  |  |  |  |  |  |  | hMAB-A(2I.2)-YTE (antibody, human IgG1, kappa, Last residue X is lysine or absent; also called hMAB-A(2I.2) with the YTE mutation (M252Y, S254T, T256E)) heavy: EVQLVESGGGLVKPGGSLRLSCAASGFTFSSYWMHWVRQAPGKGLEWVGEIIPIFGHTNYNEKFKSRFTISLDNSKNTLYLQMGSLRAEDTAVYYCARGGYYYYPRQGFLDYWGQGTTVTVSSASTKGPSVFPLAPSSKSTSGGTAALGCLVKDYFPEPVTVSWNSGALTSGVHTFPAVLQSSGLYSLSSVVTVPSSSLGTQTYICNVNHKPSNTKVDKRVEPKSCDKTHTCPPCPAPELLGGPSVFLFPPKPKDTLYITREPEVTCVVVDVSHEDPEVKFNWYVDGVEVHNAKTKPREEQYNSTYRVVSVLTVLHQDWLNGKEYKCKVSNKALPAPIEKTISKAKGQPREPQVYTLPPSREEMTKNQVSLTCLVKGFYPSDIAVEWESNGQPENNYKTTPPVLDSDGSFFLYSKLTVDKSRWQQGNVFSCSVMHEALHNHYTQKSLSLSPGK light: DIVMTQSPDSLAVSLGERATISCKASQSVDYSGDSYMNWYQQKPGQPPKLLIYAASDLESGIPARFSGSGSGTDFTLTISSLEPEDFATYYCQQSHEDPFTFGQGTKLEIKRTVAAPSVFIFPPSDEQLKSGTASVVCLLNNFYPREAKVQWKVDNALQSGNSQESVTEQDSKDSTYSLSSTLTLSKADYEKHKVYACEVTHQGLSSPVTKSFNRGEC |
|  |  |  | 0.69 | 0.6 | 0.00055 | 900000 | 1.4 | 32.7 | 47 | hMAB-A (2.2) (antibody, human IgG1, kappa, V domains shown, IgG1 kappa; also called huMAB-A(2.2); parental hMAB-A (2.2)) VH: EVQLVESGGGLVKPGGSLRLSCAASGFTFSSYWMHWVRQAPGKGLEWVGEIIPIFGHTNYNEKFKSRFTISLDNSKNTLYLQMGSLRAEDTAVYYCARGGYYYYGSRDYFDYWGQGTTVTVSS VL: DIVMTQSPDSLAVSLGERATISCKASQSVDYSGDSYMNWYQQKPGQPPKLLIYAASDLESGIPARFSGSGSGTDFTLTISSLEPEDFATYYCQQSHEDPFTFGQGTKLEIKR |

Source: patent US20210388102A1 (IMMUNOGEN, published 2021)
